Results on four molecules are retold here after paper PMC4869175, “Evidence that phytochrome functions as a protein kinase in plant light signalling” (Nature Communications, 2016).

The chains are these.
B1: Avena sativa phytochrome A, full-length wild type (natural protein, UniProt P06593 1-1129, looked up)
chain: MSSSRPASSSSSRNRQSSQARVLAQTTLDAELNAEYEESGDSFDYSKLVEAQRDGPPVQQGRSEKVIAYLQHIQKGKLIQTFGCLLALDEKSFNVIAFSENAPEMLTTVSHAVPSVDDPPRLGIGTNVRSLFSDQGATALHKALGFADVSLLNPILVQCKTSGKPFYAIVHRATGCLVVDFEPVKPTEFPATAAGALQSYKLAAKAISKIQSLPGGSMEVLCNTVVKEVFDLTGYDRVMAYKFHEDDHGEVFSEITKPGLEPYLGLHYPATDIPQAARLLFMKNKVRMICDCRARSIKVIEAEALPFDISLCGSALRAPHSCHLQYMENMNSIASLVMAVVVNENEEDDEAESEQPAQQQKKKKLWGLLVCHHESPRYVPFPLRYACEFLAQVFAVHVNREFELEKQLREKNILKMQTMLSDMLFREASPLTIVSGTPNIMDLVKCDGAALLYGGKVWRLRNAPTESQIHDIAFWLSDVHRDSTGLSTDSLHDAGYPGAAALGDMICGMAVAKINSKDILFWFRSHTAAEIRWGGAKNDPSDMDDSRRMHPRLSFKAFLEVVKMKSLPWSDYEMDAIHSLQLILRGTLNDASKPKREASLDNQIGDLKLDGLAELQAVTSEMVRLMETATVPILAVDGNGLVNGWNQKAAELTGLRVDDAIGRHILTLVEDSSVPVVQRMLYLALQGKEEKEVRFEVKTHGPKRDDGPVILVVNACASRDLHDHVVGVCFVAQDMTVHKLVMDKFTRVEGDYKAIIHNPNPLIPPIFGADEFGWCSEWNAAMTKLTGWNRDEVLDKMLLGEVFDSSNASCPLKNRDAFVSLCVLINSALAGEETEKAPFGFFDRSGKYIECLLSANRKENEGGLITGVFCFIHVASHELQHALQVQQASEQTSLKRLKAFSYMRHAINNPLSGMLYSRKALKNTDLNEEQMKQIHVGDNCHHQINKILADLDQDSITEKSSCLDLEMAEFLLQDVVVAAVSQVLITCQGKGIRISCNLPERFMKQSVYGDGVRLQQILSDFLFISVKFSPVGGSVEISSKLTKNSIGENLHLIDLELRIKHQGLGVPAELMAQMFEEDNKEQSEEGLSLLVSRNLLRLMNGDVRHLREAGVSTFIITAELASAPTAMGQ
modifications: phycocyanobilin chromophore assembled (chromophore-binding site C322)
notes: Avena sativa (oat) phytochrome A, full-length gene AsPHYA; 1129 residues by the printed construct limits (66-1129aa); Used as Pr (far-red irradiated) and Pfr (red irradiated) forms; also called AsphyA; FL-AsphyA; source: phycocyanobilin added in vitro

Data set [1] concerns the molecule itself. The experiment in a line: SEC; size-exclusion chromatography of purified full-length AsphyA proteins; molecular masses estimated.
Data set [2] concerns the target B1. Description: pull-down; GST/strep-fused interacting protein (1.0 μg) held on glutathione resin, phytochrome (1.0 μg) in solution, Pr and Pfr forms both tested; 60 min at 4 °C in pull-down buffer (100 mM Tris-HCl pH 7.8, 1 mM EDTA, 150 mM NaCl, 100 μg/ml BSA); western blot with oat22 and anti-GST. The settings on record: both partners purified. In general terms: Immunoblotting shows a protein as a band on a membrane.

B1: the binding result in data set [1] is listed as “binds”.

B2: AsphyA D422R, full length (natural protein, Avena sativa, UniProt P06593 1-1129, looked up)
chain: MSSSRPASSSSSRNRQSSQARVLAQTTLDAELNAEYEESGDSFDYSKLVEAQRDGPPVQQGRSEKVIAYLQHIQKGKLIQTFGCLLALDEKSFNVIAFSENAPEMLTTVSHAVPSVDDPPRLGIGTNVRSLFSDQGATALHKALGFADVSLLNPILVQCKTSGKPFYAIVHRATGCLVVDFEPVKPTEFPATAAGALQSYKLAAKAISKIQSLPGGSMEVLCNTVVKEVFDLTGYDRVMAYKFHEDDHGEVFSEITKPGLEPYLGLHYPATDIPQAARLLFMKNKVRMICDCRARSIKVIEAEALPFDISLCGSALRAPHSCHLQYMENMNSIASLVMAVVVNENEEDDEAESEQPAQQQKKKKLWGLLVCHHESPRYVPFPLRYACEFLAQVFAVHVNREFELEKQLREKNILKMQTMLSRMLFREASPLTIVSGTPNIMDLVKCDGAALLYGGKVWRLRNAPTESQIHDIAFWLSDVHRDSTGLSTDSLHDAGYPGAAALGDMICGMAVAKINSKDILFWFRSHTAAEIRWGGAKNDPSDMDDSRRMHPRLSFKAFLEVVKMKSLPWSDYEMDAIHSLQLILRGTLNDASKPKREASLDNQIGDLKLDGLAELQAVTSEMVRLMETATVPILAVDGNGLVNGWNQKAAELTGLRVDDAIGRHILTLVEDSSVPVVQRMLYLALQGKEEKEVRFEVKTHGPKRDDGPVILVVNACASRDLHDHVVGVCFVAQDMTVHKLVMDKFTRVEGDYKAIIHNPNPLIPPIFGADEFGWCSEWNAAMTKLTGWNRDEVLDKMLLGEVFDSSNASCPLKNRDAFVSLCVLINSALAGEETEKAPFGFFDRSGKYIECLLSANRKENEGGLITGVFCFIHVASHELQHALQVQQASEQTSLKRLKAFSYMRHAINNPLSGMLYSRKALKNTDLNEEQMKQIHVGDNCHHQINKILADLDQDSITEKSSCLDLEMAEFLLQDVVVAAVSQVLITCQGKGIRISCNLPERFMKQSVYGDGVRLQQILSDFLFISVKFSPVGGSVEISSKLTKNSIGENLHLIDLELRIKHQGLGVPAELMAQMFEEDNKEQSEEGLSLLVSRNLLRLMNGDVRHLREAGVSTFIITAELASAPTAMGQ
modifications: phycocyanobilin chromophore assembled
notes: Avena sativa phytochrome A, full length, with D422R; source: phycocyanobilin added in vitro
The stoichiometry N is the number of molecules, sites or subunits per partner or assembly. For B2, in data set [1], the “stoichiometry N” value was 2.

B3: AsphyA K411L, full length (natural protein, Avena sativa, UniProt P06593 1-1129, looked up)
chain: MSSSRPASSSSSRNRQSSQARVLAQTTLDAELNAEYEESGDSFDYSKLVEAQRDGPPVQQGRSEKVIAYLQHIQKGKLIQTFGCLLALDEKSFNVIAFSENAPEMLTTVSHAVPSVDDPPRLGIGTNVRSLFSDQGATALHKALGFADVSLLNPILVQCKTSGKPFYAIVHRATGCLVVDFEPVKPTEFPATAAGALQSYKLAAKAISKIQSLPGGSMEVLCNTVVKEVFDLTGYDRVMAYKFHEDDHGEVFSEITKPGLEPYLGLHYPATDIPQAARLLFMKNKVRMICDCRARSIKVIEAEALPFDISLCGSALRAPHSCHLQYMENMNSIASLVMAVVVNENEEDDEAESEQPAQQQKKKKLWGLLVCHHESPRYVPFPLRYACEFLAQVFAVHVNREFELEKQLRELNILKMQTMLSDMLFREASPLTIVSGTPNIMDLVKCDGAALLYGGKVWRLRNAPTESQIHDIAFWLSDVHRDSTGLSTDSLHDAGYPGAAALGDMICGMAVAKINSKDILFWFRSHTAAEIRWGGAKNDPSDMDDSRRMHPRLSFKAFLEVVKMKSLPWSDYEMDAIHSLQLILRGTLNDASKPKREASLDNQIGDLKLDGLAELQAVTSEMVRLMETATVPILAVDGNGLVNGWNQKAAELTGLRVDDAIGRHILTLVEDSSVPVVQRMLYLALQGKEEKEVRFEVKTHGPKRDDGPVILVVNACASRDLHDHVVGVCFVAQDMTVHKLVMDKFTRVEGDYKAIIHNPNPLIPPIFGADEFGWCSEWNAAMTKLTGWNRDEVLDKMLLGEVFDSSNASCPLKNRDAFVSLCVLINSALAGEETEKAPFGFFDRSGKYIECLLSANRKENEGGLITGVFCFIHVASHELQHALQVQQASEQTSLKRLKAFSYMRHAINNPLSGMLYSRKALKNTDLNEEQMKQIHVGDNCHHQINKILADLDQDSITEKSSCLDLEMAEFLLQDVVVAAVSQVLITCQGKGIRISCNLPERFMKQSVYGDGVRLQQILSDFLFISVKFSPVGGSVEISSKLTKNSIGENLHLIDLELRIKHQGLGVPAELMAQMFEEDNKEQSEEGLSLLVSRNLLRLMNGDVRHLREAGVSTFIITAELASAPTAMGQ
modifications: phycocyanobilin chromophore assembled
notes: Avena sativa phytochrome A, full length, with K411L; source: phycocyanobilin added in vitro
Turning to B3, the “stoichiometry N” value in data set [1] is 2.

B4: GST/strep-fused Arabidopsis PIF4 (natural protein, UniProt Q8W2F3 1-430, looked up)
chain: MEHQGWSFEENYSLSTNRRSIRPQDELVELLWRDGQVVLQSQTHREQTQTQKQDHHEEALRSSTFLEDQETVSWIQYPPDEDPFEPDDFSSHFFSTMDPLQRPTSETVKPKSSPEPPQVMVKPKACPDPPPQVMPPPKFRLTNSSSGIRETEMEQYSVTTVGPSHCGSNPSQNDLDVSMSHDRSKNIEEKLNPNASSSSGGSSGCSFGKDIKEMASGRCITTDRKRKRINHTDESVSLSDAIGNKSNQRSGSNRRSRAAEVHNLSERRRRDRINERMKALQELIPHCSKTDKASILDEAIDYLKSLQLQLQVMWMGSGMAAAAASAPMMFPGVQPQQFIRQIQSPVQLPRFPVMDQSAIQNNPGLVCQNPVQNQIISDRFARYIGGFPHMQAATQMQPMEMLRFSSPAGQQSQQPSSVPTKTTDGSRLDH
notes: Arabidopsis PIF4 (NM_180050); not shown: GST, N-terminal, kept
For the molecule B4, the binding result in data set [2] was “binds”.
